# Biological target: beta-klotho
# Experiment: cell-based or functional assay
row,"EC50, ELK-luciferase assay",Binder
1,4.5 nM,"PEGylated FGF21 mutant H125C (ligand, 20 kDa methoxy-PEG-maleimide on Cys 125) MHPIPDSSPLLQFGGQVRQRYLYTDDAQQTEAHLEIREDGTVGGAADQSPESLLQLKALKPGVIQILGVKTSRFLCQRPDGALYGSLHFDPEACSFRELLLEDGYNVYQSEAHGLPLHLPGNKSPCRDPAPRGPARFLPLPGLPPAPPEPPGILAPQPPDVGSSDPLSMVGPSQGRSPSYAS"
2,6.9 nM,"PEGylated FGF21 mutant E37C (ligand, 20 kDa methoxy-PEG-maleimide on Cys 37) MHPIPDSSPLLQFGGQVRQRYLYTDDAQQTEAHLEIRCDGTVGGAADQSPESLLQLKALKPGVIQILGVKTSRFLCQRPDGALYGSLHFDPEACSFRELLLEDGYNVYQSEAHGLPLHLPGNKSPHRDPAPRGPARFLPLPGLPPAPPEPPGILAPQPPDVGSSDPLSMVGPSQGRSPSYAS"
3,6 nM,"PEGylated FGF21 mutant G120C (ligand, 20 kDa methoxy-PEG-maleimide on Cys 120) MHPIPDSSPLLQFGGQVRQRYLYTDDAQQTEAHLEIREDGTVGGAADQSPESLLQLKALKPGVIQILGVKTSRFLCQRPDGALYGSLHFDPEACSFRELLLEDGYNVYQSEAHGLPLHLPCNKSPHRDPAPRGPARFLPLPGLPPAPPEPPGILAPQPPDVGSSDPLSMVGPSQGRSPSYAS"

# Biological target: beta-klotho
# Experiment: cell-based or functional assay
# Remark: another data set of the same source
row,Binder,"EC50, ELK-luciferase assay"
1,"dually PEGylated FGF21 mutant E37C, G120C (ligand, 20 kDa methoxy-PEG-maleimide on Cys 37 and on Cys 120) MHPIPDSSPLLQFGGQVRQRYLYTDDAQQTEAHLEIRCDGTVGGAADQSPESLLQLKALKPGVIQILGVKTSRFLCQRPDGALYGSLHFDPEACSFRELLLEDGYNVYQSEAHGLPLHLPCNKSPHRDPAPRGPARFLPLPGLPPAPPEPPGILAPQPPDVGSSDPLSMVGPSQGRSPSYAS",55 nM
2,"dually PEGylated FGF21 mutant G120C, R175C (ligand, 20 kDa methoxy-PEG-maleimide on Cys 120 and on Cys 175) MHPIPDSSPLLQFGGQVRQRYLYTDDAQQTEAHLEIREDGTVGGAADQSPESLLQLKALKPGVIQILGVKTSRFLCQRPDGALYGSLHFDPEACSFRELLLEDGYNVYQSEAHGLPLHLPCNKSPHRDPAPRGPARFLPLPGLPPAPPEPPGILAPQPPDVGSSDPLSMVGPSQGCSPSYAS",118 nM
3,"dually PEGylated FGF21 mutant E91C, H125C (ligand, 20 kDa methoxy-PEG-maleimide on Cys 91 and on Cys 125) MHPIPDSSPLLQFGGQVRQRYLYTDDAQQTEAHLEIREDGTVGGAADQSPESLLQLKALKPGVIQILGVKTSRFLCQRPDGALYGSLHFDPCACSFRELLLEDGYNVYQSEAHGLPLHLPGNKSPCRDPAPRGPARFLPLPGLPPAPPEPPGILAPQPPDVGSSDPLSMVGPSQGRSPSYAS",32 nM
4,"dually PEGylated FGF21 mutant K69C, E91C (ligand, 20 kDa methoxy-PEG-maleimide on Cys 69 and on Cys 91) MHPIPDSSPLLQFGGQVRQRYLYTDDAQQTEAHLEIREDGTVGGAADQSPESLLQLKALKPGVIQILGVCTSRFLCQRPDGALYGSLHFDPCACSFRELLLEDGYNVYQSEAHGLPLHLPGNKSPHRDPAPRGPARFLPLPGLPPAPPEPPGILAPQPPDVGSSDPLSMVGPSQGRSPSYAS",69 nM
5,"dually PEGylated FGF21 mutant E37C, G170C (ligand, 20 kDa methoxy-PEG-maleimide on Cys 37 and on Cys 170) MHPIPDSSPLLQFGGQVRQRYLYTDDAQQTEAHLEIRCDGTVGGAADQSPESLLQLKALKPGVIQILGVKTSRFLCQRPDGALYGSLHFDPEACSFRELLLEDGYNVYQSEAHGLPLHLPGNKSPHRDPAPRGPARFLPLPGLPPAPPEPPGILAPQPPDVGSSDPLSMVCPSQGRSPSYAS",163 nM
6,"dually PEGylated FGF21 mutant G120C, H125C (ligand, 20 kDa methoxy-PEG-maleimide on Cys 120 and on Cys 125) MHPIPDSSPLLQFGGQVRQRYLYTDDAQQTEAHLEIREDGTVGGAADQSPESLLQLKALKPGVIQILGVKTSRFLCQRPDGALYGSLHFDPEACSFRELLLEDGYNVYQSEAHGLPLHLPCNKSPCRDPAPRGPARFLPLPGLPPAPPEPPGILAPQPPDVGSSDPLSMVGPSQGRSPSYAS",23 nM
7,"dually PEGylated FGF21 mutant R77C, E91C (ligand, 20 kDa methoxy-PEG-maleimide on Cys 77 and on Cys 91) MHPIPDSSPLLQFGGQVRQRYLYTDDAQQTEAHLEIREDGTVGGAADQSPESLLQLKALKPGVIQILGVKTSRFLCQCPDGALYGSLHFDPCACSFRELLLEDGYNVYQSEAHGLPLHLPGNKSPHRDPAPRGPARFLPLPGLPPAPPEPPGILAPQPPDVGSSDPLSMVGPSQGRSPSYAS",26 nM
8,"dually PEGylated FGF21 mutant K69C, H125C (ligand, 20 kDa methoxy-PEG-maleimide on Cys 69 and on Cys 125) MHPIPDSSPLLQFGGQVRQRYLYTDDAQQTEAHLEIREDGTVGGAADQSPESLLQLKALKPGVIQILGVCTSRFLCQRPDGALYGSLHFDPEACSFRELLLEDGYNVYQSEAHGLPLHLPGNKSPCRDPAPRGPARFLPLPGLPPAPPEPPGILAPQPPDVGSSDPLSMVGPSQGRSPSYAS",164 nM
9,"dually PEGylated FGF21 mutant R77C, R175C (ligand, 20 kDa methoxy-PEG-maleimide on Cys 77 and on Cys 175) MHPIPDSSPLLQFGGQVRQRYLYTDDAQQTEAHLEIREDGTVGGAADQSPESLLQLKALKPGVIQILGVKTSRFLCQCPDGALYGSLHFDPEACSFRELLLEDGYNVYQSEAHGLPLHLPGNKSPHRDPAPRGPARFLPLPGLPPAPPEPPGILAPQPPDVGSSDPLSMVGPSQGCSPSYAS",62 nM
10,"dually PEGylated FGF21 mutant H125C, R175C (ligand, 20 kDa methoxy-PEG-maleimide on Cys 125 and on Cys 175) MHPIPDSSPLLQFGGQVRQRYLYTDDAQQTEAHLEIREDGTVGGAADQSPESLLQLKALKPGVIQILGVKTSRFLCQRPDGALYGSLHFDPEACSFRELLLEDGYNVYQSEAHGLPLHLPGNKSPCRDPAPRGPARFLPLPGLPPAPPEPPGILAPQPPDVGSSDPLSMVGPSQGCSPSYAS",200 nM
11,"dually PEGylated FGF21 mutant E91C, R175C (ligand, 20 kDa methoxy-PEG-maleimide on Cys 91 and on Cys 175) MHPIPDSSPLLQFGGQVRQRYLYTDDAQQTEAHLEIREDGTVGGAADQSPESLLQLKALKPGVIQILGVKTSRFLCQRPDGALYGSLHFDPCACSFRELLLEDGYNVYQSEAHGLPLHLPGNKSPHRDPAPRGPARFLPLPGLPPAPPEPPGILAPQPPDVGSSDPLSMVGPSQGCSPSYAS",46 nM
12,"dually PEGylated FGF21 mutant E37C, E91C (ligand, 20 kDa methoxy-PEG-maleimide on Cys 37 and on Cys 91) MHPIPDSSPLLQFGGQVRQRYLYTDDAQQTEAHLEIRCDGTVGGAADQSPESLLQLKALKPGVIQILGVKTSRFLCQRPDGALYGSLHFDPCACSFRELLLEDGYNVYQSEAHGLPLHLPGNKSPHRDPAPRGPARFLPLPGLPPAPPEPPGILAPQPPDVGSSDPLSMVGPSQGRSPSYAS",36 nM
13,"dually PEGylated FGF21 mutant K69C, G120C (ligand, 20 kDa methoxy-PEG-maleimide on Cys 69 and on Cys 120) MHPIPDSSPLLQFGGQVRQRYLYTDDAQQTEAHLEIREDGTVGGAADQSPESLLQLKALKPGVIQILGVCTSRFLCQRPDGALYGSLHFDPEACSFRELLLEDGYNVYQSEAHGLPLHLPCNKSPHRDPAPRGPARFLPLPGLPPAPPEPPGILAPQPPDVGSSDPLSMVGPSQGRSPSYAS",119 nM
14,"dually PEGylated FGF21 mutant E37C, K69C (ligand, 20 kDa methoxy-PEG-maleimide on Cys 37 and on Cys 69) MHPIPDSSPLLQFGGQVRQRYLYTDDAQQTEAHLEIRCDGTVGGAADQSPESLLQLKALKPGVIQILGVCTSRFLCQRPDGALYGSLHFDPEACSFRELLLEDGYNVYQSEAHGLPLHLPGNKSPHRDPAPRGPARFLPLPGLPPAPPEPPGILAPQPPDVGSSDPLSMVGPSQGRSPSYAS",67 nM
15,"dually PEGylated FGF21 mutant E37C, H125C (ligand, 20 kDa methoxy-PEG-maleimide on Cys 37 and on Cys 125) MHPIPDSSPLLQFGGQVRQRYLYTDDAQQTEAHLEIRCDGTVGGAADQSPESLLQLKALKPGVIQILGVKTSRFLCQRPDGALYGSLHFDPEACSFRELLLEDGYNVYQSEAHGLPLHLPGNKSPCRDPAPRGPARFLPLPGLPPAPPEPPGILAPQPPDVGSSDPLSMVGPSQGRSPSYAS",64 nM

# Other lines, results leading:
row,"EC50, ELK-luciferase assay",Binder
1,318 nM,"dually PEGylated FGF21 mutant K69C, R175C (ligand, 20 kDa methoxy-PEG-maleimide on Cys 69 and on Cys 175) MHPIPDSSPLLQFGGQVRQRYLYTDDAQQTEAHLEIREDGTVGGAADQSPESLLQLKALKPGVIQILGVCTSRFLCQRPDGALYGSLHFDPEACSFRELLLEDGYNVYQSEAHGLPLHLPGNKSPHRDPAPRGPARFLPLPGLPPAPPEPPGILAPQPPDVGSSDPLSMVGPSQGCSPSYAS"
2,34 nM,"dually PEGylated FGF21 mutant R77C, G120C (ligand, 20 kDa methoxy-PEG-maleimide on Cys 77 and on Cys 120) MHPIPDSSPLLQFGGQVRQRYLYTDDAQQTEAHLEIREDGTVGGAADQSPESLLQLKALKPGVIQILGVKTSRFLCQCPDGALYGSLHFDPEACSFRELLLEDGYNVYQSEAHGLPLHLPCNKSPHRDPAPRGPARFLPLPGLPPAPPEPPGILAPQPPDVGSSDPLSMVGPSQGRSPSYAS"
3,21 nM,"dually PEGylated FGF21 mutant E37C, R77C (ligand, 20 kDa methoxy-PEG-maleimide on Cys 37 and on Cys 77) MHPIPDSSPLLQFGGQVRQRYLYTDDAQQTEAHLEIRCDGTVGGAADQSPESLLQLKALKPGVIQILGVKTSRFLCQCPDGALYGSLHFDPEACSFRELLLEDGYNVYQSEAHGLPLHLPGNKSPHRDPAPRGPARFLPLPGLPPAPPEPPGILAPQPPDVGSSDPLSMVGPSQGRSPSYAS"
4,180 nM,"dually PEGylated FGF21 mutant K69C, R77C (ligand, 20 kDa methoxy-PEG-maleimide on Cys 69 and on Cys 77) MHPIPDSSPLLQFGGQVRQRYLYTDDAQQTEAHLEIREDGTVGGAADQSPESLLQLKALKPGVIQILGVCTSRFLCQCPDGALYGSLHFDPEACSFRELLLEDGYNVYQSEAHGLPLHLPGNKSPHRDPAPRGPARFLPLPGLPPAPPEPPGILAPQPPDVGSSDPLSMVGPSQGRSPSYAS"
5,50 nM,"dually PEGylated FGF21 mutant E37C, R175C (ligand, 20 kDa methoxy-PEG-maleimide on Cys 37 and on Cys 175) MHPIPDSSPLLQFGGQVRQRYLYTDDAQQTEAHLEIRCDGTVGGAADQSPESLLQLKALKPGVIQILGVKTSRFLCQRPDGALYGSLHFDPEACSFRELLLEDGYNVYQSEAHGLPLHLPGNKSPHRDPAPRGPARFLPLPGLPPAPPEPPGILAPQPPDVGSSDPLSMVGPSQGCSPSYAS"
6,54 nM,"dually PEGylated FGF21 mutant E91C, G120C (ligand, 20 kDa methoxy-PEG-maleimide on Cys 91 and on Cys 120) MHPIPDSSPLLQFGGQVRQRYLYTDDAQQTEAHLEIREDGTVGGAADQSPESLLQLKALKPGVIQILGVKTSRFLCQRPDGALYGSLHFDPCACSFRELLLEDGYNVYQSEAHGLPLHLPCNKSPHRDPAPRGPARFLPLPGLPPAPPEPPGILAPQPPDVGSSDPLSMVGPSQGRSPSYAS"
7,30 nM,"dually PEGylated FGF21 mutant R77C, H125C (ligand, 20 kDa methoxy-PEG-maleimide on Cys 77 and on Cys 125) MHPIPDSSPLLQFGGQVRQRYLYTDDAQQTEAHLEIREDGTVGGAADQSPESLLQLKALKPGVIQILGVKTSRFLCQCPDGALYGSLHFDPEACSFRELLLEDGYNVYQSEAHGLPLHLPGNKSPCRDPAPRGPARFLPLPGLPPAPPEPPGILAPQPPDVGSSDPLSMVGPSQGRSPSYAS"
